Assay results published in the supplement of paper PMC12636428.

System: Saccharomyces cerevisiae
Experiment: transcriptional activation domain activity (GFP:mCherry ratio, weighted mean of sorted bins, harmonized to initial dataset scale) (arbitrary fluorescence ratio units); higher = stronger transcriptional activation
Settings: beta-estradiol 1 µM; induction time 4 h
Summary of the method: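 Sorting into 8 bins by GFP:mCherry ratio followed a 4-hour hold at 30 °C after cultures were diluted 1:5 into SC with 1 uM beta-estradiol. The yeast diploids carried a GFP reporter and had barcoded protein tiles, fused to an estradiol-inducible synthetic transcription factor, integrated at URA3. Barcodes were then sequenced, and tiles with under 50 reads were removed. Activation activity is the read-weighted mean of bin median fluorescence, averaged across barcodes and linearly mapped onto the initial dataset scale.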

Row | Sequence | transcriptional activation domain activity
1 | ESGCGREDMTVKSGIVFSFYFFCCLFFFLLSLFVCFPPPFFFILLFPIFIHLY | 18900
2 | ESGESEESGRARSRRKRRRREERRGEEGKRRTRAGVRRSKGRKTERASTAGTD | 43100
3 | ESGSGSGSESGDSKDTAKAQGRGRKRGRESENHSSEDEEESVERKPRKARKFR | 36100
4 | ESGWIYVSVTTFFTSIALLGVMIACMVLRTHLFIWTVFSPKYLYSMAWSLGQH | 55900
5 | ESHLVPEASKIWKPLDGYWMPSWMKYQIFIPLFMLQLLNLFWYFLIWHILIRA | 44900
6 | ESKDKSKEGKSKRGDKTLDTKGKSEEENKKGGDKKDEKKKDEKKKEEEEKEKA | 25400
7 | ESKNKAEEETEEGEGARGEEEEEEKEEQGESDNEDANSAEADKTKSKQGKKQR | 31900
8 | ESLKHHEGINMVWKKFQSIFRIIEGIVYYEPVYRAFVRHILHHLHLDNVLWVD | 70300
9 | ESLREIGLTSVRDIITRHASEQAILTVVDFPLRVLAMIAQIRCGLWVRNGFVI | 77800
10 | ESNVAGTAGSKPRKPRAKTQKKMRPSENSQAEKSDRSATRKSREPTGTRRGRK | 24800
11 | ESNVEAGKAEAEKAVEEAAGAEGEGGEEKAVEEEVAEGAEGEAAEGEAAEGEA | 32600
12 | ESPSPDQEEEVEDRENDKPKANTAKKAKPAEGKKTGGRKKAALGGAAKKKAEK | 43300
13 | ESPSQINDFIPQKLIIEPNTLELNGLTEETPHDLPKNTAKGRDEEDFPLDYFP | 55200
14 | ESSEEDEEGGEGEGRKAKRNRMALSCKECKRRKIKCDRAMPSCGPCSKRGASS | 27200
15 | ESSGGESEDDYVQEKRSSKPKRRGSRRGDEEEGGGGRKRAAQKKRKRKQPEEV | 34800
16 | ESSLSDKAEPKKEDSGKMAEAPKPAPEPKKEPKKEESKPAAKQESKKEVEEKA | 35200
17 | ESSSDEEEMTVAQKMAAQRKAEAAARRAKAHEEALAARSKDDLRSPICCILGH | 53200
18 | ESSSSTGAEEKKKKKKSSKDKKRKAEDEDDATDGAEEKKSKKVKASEDEPARK | 14100
19 | ESVRQHIVTETKNRVETYLAHCNPIVPHQRLTLLLARLLLRKLDFVTRLQWIL | 50300
20 | ESVSESESASASESAAEEASAAPEEDAMWSNIMKKFARRDEEESVSESASASE | 54900
21 | ETAKIDIEKQSNGETDISVLRNHAPGTAPTEEENLEKNMAPLRKLIRLLLLNT | 39100

Row | Sequence | transcriptional activation domain activity
22 | ETAPATEEKPVEETKPAEEAAKTEEEKKEDEAKPIEEGHLNHKAQGLSFPKNL | 55000
23 | ETCGRCRGQGVVIQKAQLAPGIFQQMQMQCDQCGGQGTQIKHRCKVCGGARVV | 52100
24 | ETEGAEETSDAEGNESAGKQKKRARKSSHASSRSRTGAQNKKSTVEQKSTFRG | 51600
25 | ETEGFAKMAKAMGFGVYGLPSYIIKHIYNNCTHLFVVWHYGTLLIHLTAYPSF | 73700
26 | ETGSEWREGSSDGFRSVKTVLLGVWAEYGGLRRNEICDTLRRLTLSSLGKINP | 53800
27 | ETIHGPAPATSFDDTNFTWQLFDESPGFDPLAQLQSFSDFGLSGHDLLFGFMD | 123000
28 | ETKGASGEGGKSTSESGSASSSSSKGEGKAAGEQGSSGSSSGSSSESGSKEKT | 30100
29 | ETPAAEPVKETETAAEAAPAEAAAEATPEEAKEEKKEEKKEEKVKGSKVGRRL | 32500
30 | ETSDEAKSEDSSSDEGDDSSSSEDDGRKRSRKKSVIKMRKTKAKKTKKKGKKS | 39300
31 | ETVEEPAPKRGKATRTKAAEPAPVEEAPKPAAKPRGRAAAKKATEPAAEAEVE | 35500
32 | ETVLKDLKSNQNIDTTVQKLFANCLFYARRIALIHPNLTSIKALLLLMVALEC | 81600
33 | ETVQKYDGYRPDILSIWNNEFYPIGKYNDDMTGFKFQMRIKEMQEFLDMEKYS | 68500
34 | ETYLFLQDQDESADSHHHDELGSEITLADNKFSYLPPTLEELMEEQDCNNGRS | 84700
35 | EVAANHRTILDHTMSLVSAVHIACLRFMTVAWAQAYRRYIVAWIRDLQVLHPH | 70400
36 | EVAEEAAAAAAPEKKTRRGASKKAAAEKAAAAEEEGEKAAQKAEKAAEKAAEK | 33200
37 | EVDAEAAEKPVKRLTRKARGVTEENQTSDAQSSRPAPVRRGRKPASVASTTAP | 54700
38 | EVDEAAVKMVKRARRERRAAEKEASGEAEHAAGVEKKPKRRSSRKKKEEGEGG | 31400
39 | EVDMTPADALDDFDLEMLGDVESPSPGMTHDPVSYGALDVDDFEFEQMFTDAL | 112000
40 | EVEAAIAAAAAEVEKVEVKAKAKAEAAAAAAAAAEAAAAAEARAAAAAAAQAA | 30700
41 | EVEGEGEDGEEEAAPPPKKVRASGRSKKIEYKEESEEEAPAPKKTRGKKAATK | 6720
42 | EVETRYTLAIELFQPILKVLVDFESDDLKFGFLVAWLVGLYRRLWELCVFKYI | 58900

Row | Sequence | transcriptional activation domain activity
43 | EVGADGGAAADEEEEEESDEEGEDGGRKRKKPKVAAEKPERKASAAPADGEKK | < 6570
44 | EVGAKTFLAGLAGSGGSGGVYRCVIDKSRPAVWRLRKNDAPLSSFAAALLVSN | 72500
45 | EVHLHIRKVYRHYDDLEHLGRRKFNFLTLVIRHLLDIVGIDSPWALFSRKPQQ | 63000
46 | EVIAGQQYAGLSFFAFVLRQDDIKSLDLILAEYFKVPTALDIIRSSLYLAIYS | 48600
47 | EVKAESKPESKVEPKTEAKPEPKAEPKSEPKVEPKKSESSKKNKKKKAKKAAA | 33700
48 | EVKDKVWFLEGVTQVLPQDVDEYSGGGGMHMMLDFLGGGLPSMTTTNFSDFSL | 113000
49 | EVKETKEGESQSPAKQEVVQEETVKPSPPQPPQQTKQQKKKKLVLTSGGGGRG | < 6570
50 | EVKLEEAEATGASVKRKSRKSKIETDIADGADNEATPSGSRRRGRPRKSQPDP | 59400
51 | EVLHLFIHFSFIFALYMLCFFLPAKHLCNLLTWYKYLFFLLSIMLFFLILIGT | 64200
52 | EVLITKKPAKQTRGKKAPTAAVNKAEIEEGQDDVNFANVGRGRKRAVAKKVVE | 25700
53 | EVLLLLMWMFWTKVVKIIPHFLRHPSDFPLVICQILFGYAHSFIKLWALVTFW | 47200
54 | EVMKIHPVQKQTRAGQRTRFKAYVVVGDSNGHVGLGVKCSKEVATAIRSAIIL | 38700
55 | EVMKIMPVQKQTRAGQRTRFKAFVVIGDSDGHVGLGVKCAKEVATAIRGAIIL | 55300
56 | EVMKIMPVQKQTRAGQRTRFKAFVVIGDSEGHVGLGVKCAKEVATAIRGAIIL | 56900
57 | EVMKITPVQKQTRAGQRTRFKAFVAIGDSNGHVGLGVKCAKEVASAIRGAIIL | 61100
58 | EVMKVTPVQKQTRAGQRTRFKAFVAIGDYDGHVGLGVKCAKEVASAIRGAIIL | 48700
59 | EVNYLYGLILLQFYTGFIHDIIFGSGHLPFLPLMITSIYCSLGVVYGWGYFML | 51000
60 | EVRELHLIDRTLDELRTVQLTLTMLHLICAPKPVFHLLRSVVLQCAEPKGLLT | 46300
61 | EVSEESGDSGDDEGRKEKKKRKRVKEEEVEDEGERKKKKSKKSKDEKSAEKAD | 47600
62 | EVSFVALLLVWTYMRHYLNCKILYSVWTEFDLIPHHFRSWVHEPGYPHDIRGW | 45000
63 | EVSIDGVQTVTYCGRDALPEHDKVTEVGWVLDRGILKLGVLYLWLNCRHMCVT | 65400

Row | Sequence | transcriptional activation domain activity
64 | EVTEAEANGETPNAEGVTPAEGEQKPKKKRKSNRKKKAAATPAEGEAAKEAPA | 34500
65 | EVVLLPDLCGFCCFSMRFVVLLDLIGTLTLPVTACYLVYLIYVIASGNGPFPL | 46800
66 | EVYFGLVNRRFRELLLVHERCFDLKVPNYRLMSILLAYLLRHTMVTPKVKYPE | 29700
67 | EVYLLRFEQCLTRAMTLIRMFFVGSLRALTQDVSRRLAEKDVSQTAQTHLLYT | 46300
68 | EWAPDVLRKSAKTFTQEGPMVKLQIVTLAAKLLVLSPVDPRLTLLCRYVFSLA | 46000
69 | EWFVMFCMMLLLLFWFFPISALASLLSYEEIKKIMPWLGRLIDANENIRAIVQ | 62900
70 | EWMKVVYGFDQKPIPSGACSGSIAKIFGTNTSAFELLVLKRRIMGPCWIQIKK | 55800
71 | EWNRSVNSTYPLLYRGVDFLQKSLSWLKILRLSYLHPLQFFGCFGFGLLVVHI | 60200
72 | EWTRLVQNPAASPRLLNGFIRQMLADLPTTSILVLVRTALEVSVESYAQAGST | 58700
73 | EWVIGWCKQIGLPDGVTEFIGRSYIMTAEAYLDLPMSKQVLVPVVAINTLVFV | 34200
74 | EYAEWLLQPEQNNGTWVADVLWPAIDLDLEWIALNWNQSSWDLWWPPVWAGSF | 107000
75 | EYAPKTPVVAAAVPKEEKKEEKAEEVKEAKEEENKEIKDEKKDTRKSRSASRK | < 6570
76 | EYDEDAARRIAERVHARAIGLTCGAAPPQVGGRSCASAVWSPIRVAVSTVCIQ | 44700
77 | EYFYYKMLAPSAATVFYVYVGLIKMSIALFNIRLTTLTTKLWGNVNWAFFVIC | 63000
78 | EYLDKLLAEFEEFDYSINRVLPDVIDFSALIGQDSSANNQIFSSEFSSDPTVN | 139000
79 | EYMGKETGSHHLGREGEEKTYAVRRDYESRNRVALTPERNAVEIVRVRTQAAP | 19700
80 | EYVRETTPEKEGGGRRRQKREDVTSGEEDAPDAVEKGKKRKRSAAGGAGAGKK | 48300
81 | EYVSLCRTFATREMLKVAIFANIFSKMTRTLACLFVTRISSHVNRLRALLQPI | 61700
82 | FAALRRGLLLIMLFALWDVRLLSELSFTNFVFPPAMFRVIAAQSPSLRAVKVS | 45300
83 | FAELRRARAGCFFFFFFLFFPFFSFFYFFLLFLFLFLPPFPFLSFPFFSLCVL | 56100
